The binders below were run against T1, HLA-B*08:01 class I complex (biotinylated heavy chain with beta2-microglobulin) (human) (assay: UV peptide exchange + HLA class I ELISA; % of Pos control peptide).
T1 construct: Conditional HLA class I complex loaded with a UV-labile peptide that is exchanged for the test peptide
Experimental: The exchange efficiency between the peptide of interest and Pos was analyzed using an HLA class I ELISA.
The UV control represented UV-irradiation of conditional HLA class I complex in the absence of a rescue peptide. […] The HLA class I ELISA is an enzyme immunoassay based on the detection of beta2-microglobulin (B2M) of (peptide-stabilized) HLA class I complexes. To this end streptavidin was bound onto polystyrene microtiter wells. […] Non-bound material was removed by washing. Subsequently, horseradish peroxidase (HRP)-conjugated antibody to human B2M was added. […] In the latter case B2M was removed during the washing step. After removal of non-bound HRP conjugate by washing, a substrate solution was added to the wells. A coloured product formed in proportion to the amount of intact HLA complex present in the samples. After the reaction was terminated by the addition of a stop solution, absorbance was measured in a microtiter plate reader.

For RVGNCKHLK (Synthetic 9-mer) [P82 9-mer neoantigen peptide RVGNCKHLK (AR-V7 splice variant)], which “exchange rate with Pos peptide” value is on record?
Its value is 1.4%.

How did the “exchange rate with Pos peptide” value turn out when RAVRRMNTF (Synthetic 9-mer) [P17 9-mer neoantigen peptide RAVRRMNTF (MSMB-NOCA4 fusion)] was run?
The value was 9%.

How did the “exchange rate with Pos peptide” value turn out when FLFLLLPLS (Synthetic 9-mer) [P87 9-mer neoantigen peptide FLFLLLPLS (AR-Intron splice variant)] was run?
Its value is 3.1%.

With RAKCKFSIL (Synthetic 9-mer) [P56 9-mer neoantigen peptide RAKCKFSIL (SPOP(F102C) missense)] as the binder, how does the “exchange rate with Pos peptide” value read?
The value was 38%.

For NMVENGCYL (Synthetic 9-mer) [P59 9-mer neoantigen peptide NMVENGCYL (FOXA1 (F254V) missense)], which “exchange rate with Pos peptide” value is on record?
The value was 5.5%.

Which “exchange rate with Pos peptide” value does the source give for GVLRRLLCR (Synthetic 9-mer) [P37 9-mer neoantigen peptide GVLRRLLCR (TSTD1-F11R fusion)] here?
Its value is 3.3%.

How did the “exchange rate with Pos peptide” value turn out when HVPKILSGK (Synthetic 9-mer) [P58 9-mer neoantigen peptide HVPKILSGK (AR (Q903H) missense)] was run?
The value was 5.3%.

For YLRRQKRLK (Synthetic 9-mer) [P60 9-mer neoantigen peptide YLRRQKRLK (FOXA1.p.F266L missense)], which “exchange rate with Pos peptide” value is on record?
Its value is 10.2%.

For IVWWCPMSR (Synthetic 9-mer) [P98 9-mer neoantigen peptide IVWWCPMSR (TP53 (R213D) frameshift)], which “exchange rate with Pos peptide” value is on record?
The value was 2.4%.

How did the “exchange rate with Pos peptide” value turn out when FPVGAEGTF (Synthetic 9-mer) [P27 9-mer neoantigen peptide FPVGAEGTF (FAM126B-ORC2 fusion)] was run?
Its value is 6.4%.

How did the “exchange rate with Pos peptide” value turn out when FFKRAAEGF (Synthetic 9-mer) [P77 9-mer neoantigen peptide FFKRAAEGF (AR-V3 splice variant)] was run?
Its value is 3.4%.

How did the “exchange rate with Pos peptide” value turn out when CYLGRQKRF (Synthetic 9-mer) [P61 9-mer neoantigen peptide CYLGRQKRF (FOXA1.p.R261G missense)] was run?
Its value is 3.6%.

For QLIAMDSAI (Synthetic 9-mer) [P22 9-mer neoantigen peptide QLIAMDSAI (SLC45A3-ELK4 fusion)], which “exchange rate with Pos peptide” value is on record?
The value was 3.9%.

For IQYSCMGLM (Synthetic 9-mer) [P50 9-mer neoantigen peptide IQYSCMGLM (AR (W742C) missense)], which “exchange rate with Pos peptide” value is on record?
The value was 4.7%.

IPVLTRWPL (Synthetic 9-mer) [P19 9-mer neoantigen peptide IPVLTRWPL (TMEM222-LOC644961 fusion)] was tested. Which “exchange rate with Pos peptide” value did it give?
The value was 14.5%.

How did the “exchange rate with Pos peptide” value turn out when STRRAVRRM (Synthetic 9-mer) [P16 9-mer neoantigen peptide STRRAVRRM (MSMB-NCOA4 fusion)] was run?
The value was 6.2%.

For NSKMALNSL (Synthetic 9-mer) [P35 9-mer neoantigen peptide NSKMALNSL (TMPRSS2-ERG fusion)], which “exchange rate with Pos peptide” value is on record?
The value was 13.7%.

Which “exchange rate with Pos peptide” value does the source give for LMAQRLLLR (Synthetic 9-mer) [P97 9-mer neoantigen peptide LMAQRLLLR (FOXRED2-TXN2 fusion)] here?
Its value is 2.7%.

How did the “exchange rate with Pos peptide” value turn out when CPMSRLRLA (Synthetic 9-mer) [P46 9-mer neoantigen peptide CPMSRLRLA (TP53 (R213D) frameshift)] was run?
Its value is 14.5%.

Which “exchange rate with Pos peptide” value does the source give for LLERNSFEV (Synthetic 9-mer) [P73 9-mer neoantigen peptide LLERNSFEV (TP53 (G266E) missense)] here?
Its value is 2.6%.

Source: US20240139265A1 (published 2024)
